From the nanobody polyreactivity screen of Harvey et al. (2022)

Experiment: yeast display, Sf9 membrane polyspecificity reagent, FACS + sequencing; frameworks hold sequencing errors
In short: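 Using colony PCR, genes from sorted yeast display clones were amplified, then sequenced on MiSeq at 2 × 250 and filtered by CDR length. The clones had been stained with 10% biotinylated, detergent-solubilized Sf9 membrane reagent for 1 hour at 4 °C and sorted by FACS into low and high (top ~1%) gates on anti-HA and streptavidin fluorescence. Polyreactivity labels come from the gate of origin.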

Sequence | polyreactivity (PSR sort gate)
QVQLVESGGGLVQAGGSLRLSCAASGRIFRHYAMGWYRQAPGKERELFAAIDWDGDTTYYADSVKGRFTISRDNAKNTVYLQMNSLKPEDNAVSYCAAEFYSLGKAIYEYWGQGTQVTVSS | high polyreactivity
QVQLVESGGGLVQAGGSLRLSCAASGSTFTFYAMGWYRQAPGKERELVASITQSTGSTHYADSVKGRFTISRDNAKNTVYLQMNSLKPEDTSVYYCNAQKIVYYWVTLFPYYYWGQGTQVTVSS | low polyreactivity
QVQLVESGGGLVQAGGSLRLSCAASGSIFSSYAMGWYRQAPGKERELVAAISKSGVSTYYADSVKGRFTISRDNAKNTVYLQMNSLKPEDTAVYYCNAKGKYWHYDYWGQGTQVTVSS | high polyreactivity
QVQLVESGGGLVQAGGSLRLSCAASGRTFRTYVMGWYRQAPGKEREFVAGITWSSGSTRYADSVKGRFTISRDNAKNTVYLQMNSLKPEDTAVYYCAAKRWPGTDGYWGQGTQVTVSS | high polyreactivity
QVQVVESGGGLVQAGGSLRLSCAASGRIFAKYAMGWYIQAPGKERELVAAIDLSDGSTSYADSVKGRFTISRDNAKNTVYLQMNSLKPEDTAVYYCAKTWANVYAGAHDYWGQGTQVTVSS | low polyreactivity
QVQIVESGGGLVQAGGSLRLSCAASRRIFEYYTMGWYRQAPGKERELVARISSGGSTYYADTVKGRFTISRDNAKNSVYLQLNSLLPEDTAVYYCAAGRGYWWWYGYDYWGQGTEVTVSS | low polyreactivity
QVQLVESGGGLVQAGGSLRLSCAASGNTFVRNAMGWYRQAPGKERELVAAMSSRGTSTYYADSVKGRFTISRDNAKNTVYLQMNSLKPEDTAVYYCAAYQYPADFKLYYYWGQGTQVTVSS | high polyreactivity
QVQLVESGGGLVQAGGSLRLSCAASGRIFTRYAMGWYRQAPGKERELVAVITRSGGSTYYADSVKGRFTISRDNAKNTVYLQMNSLKPEDTAVYYCAAKYYGEMYYWGQGTQVTVSS | low polyreactivity
QVQLVESGGGLVQAGGSLRLSCAASGSIFWYNTMGWYRQAPGKERELVAAISSSGGTTYYADSVKGRFTISRDNAKNTVYLQMNSLKPEDTAVYYCAATVGDAYYEYDYWGQGTQVTVSS | low polyreactivity
QVQLVESGGGLVQAGGSLRLSCAASGITLGTYAMGWSRQAPGKERELVAGISTSGGSTYYADSVKGPFTISRDNAKNTVYLQMNSLKPEETAVYYCAKRRYGSGYYRYRGYDYWGQGTQVTVSS | high polyreactivity
QVQLVESGGGLVQAGGSLRLSCAASGSTFAYYAMGWYRQAPGKESELVAAISSGGSTYYADSVKGRFTISRDNAKNTVYLEMFCLKGDDTAVYYCNKLWVGKFKRYEFGYWGQGTQVTVSS | low polyreactivity
QVQLVESGGGLVQAGGSLRLSCAASGSTFTSYAMGWYRQAPGKERELVAAISKSGGSTYYADSVKGRFTISRDNAKNTVYLQMNSLKPEDTAVYYCAKYIAYYGYVPSPWDHPGDDYWGQGTQVTVSS | low polyreactivity
QVQLVESGGGLVQAGGSLRLSCAASGSIFPQYAMGWYRQAPGKERELVAAISSSGGRTYYADSVKGRFTISRDNAKNTVYLQMNSLKPEDTAVYYCAADGSYAIGGYGYWGQGTQVTVSS | high polyreactivity
KVQLVESGGGLVQAGGSLRLSCAASGSIFWDNVMGWYRQAPGNERELVADIDSWDGGSTYYADSVKGRFTISRDNAKNTVYLQMNSLKPEDTAVYYCNSDVLWWRGGDDFWGKGTQVTVSS | low polyreactivity
QVQLVESGGGLVQAGGSLRLSCAASGLTFSIYAMGWYREAPGKERELVAAITGRGGRTYYADSVKGRFTISRDNAKNTVYLQMHSLKPEDTAVYYCAARYRGTDFDYWGQGTQVTVSS | high polyreactivity
QVQLVESGGGLVQAGGSLRLSCDASGSTFYYYAMGWYRQAPGKERELVDSISFSGGSTYYADSVKGRFTISRDNAKNTVYLQMNSLKPEDTAVYYCGYYYWGQGTQVTVSS | low polyreactivity
QVQLVESGGGLVQAGGSLRLSCAASGSISYQNAMGWYRQATGKERELVAAISGDGDSMYYADSVKGRFTISRDNAKNTVYLQMNSLKPEDTAVYYCAAEPNVYFSVFVLFPSDYWGQGTQVTVSS | low polyreactivity
QVQLRESGGGLVQAGGSLRLSCAASGRIFGNYSMGRYRQAPGKEREMVAAISGGGSTYYADSVKGRFTISRDNAKNTVYLQMTSLKPEDTAVYYCADRFLWSVFCRKGGYWGQGTQVTVSS | low polyreactivity
QVQLVESGGGLVQAGGSLRLSCAASGSIFYVNVMGWYRQAPGKERELVATISSGDTNYADSVKGRFTISRDNAKNTVYLQMNSLKPEDTAVYYCARRRTIPYTLVDYDSWGQGTQVTVSS | low polyreactivity
QVQLVESGGGLVQAGGSLRLSCAASGRTFKDYVMGWYRQAPGKERELVAAITWRGGRTYYADSVKGRFTISRDNAKNTVYLQMNSLKPEDTAVYYCAAAEYFVSGGIMDYWGQGTQVTVSS | high polyreactivity
QVQLVESGGGLVQAGGSLRLSCAASGITFYLYDMGWYRQAPGKERELVASITSDGSTDYADSVKGRFTISRDNAKNTVYLQMNSLKPEDTAVYYCNARVTYAWYRFGRSGDDSWGQGTQVTVSS | low polyreactivity
QVQLVESGGCLVPAGGSLRLSCAASGFIIDWYDMAWYRQAPGKERELVAAITRSAGRTYYADSVKGRFTISRDIAKITVYLQMNSLKPEDTAVYYCAARSSSAGGGDGYWGQGTQVTLSS | high polyreactivity

Sequence | polyreactivity (PSR sort gate)
QVQLVESGGGLVQAGGSLRLSCAASGRIFIPYAMGWYIQAPGKERELVAAISSSGGSTYYADSVKGRFTISRDTAKNTVYLQMNSLKPEDTEVYFCAARLYWGYAYENYSSLFEYDYWGQGTQVTVSS | low polyreactivity
QVQLVESGGGLVQAGGTLRLSCSASGSTFAINAMGWYRQPPGKERELVATITSGSNTNNADSVKGRFTISRDNAKNTVDLQMNSLNPEDTAVYYCAAAFGYRFHYGYFYIYDYWGQGTQVTVSS | high polyreactivity
QVQLVESGGGLVQAGGSLRLSCAASGRIFSYYAMGWYRQAPGKERELVAAISRTGGTTYYADSVKGRFTISRDTAKNTVFLQMNSLKPEDTAVYYCNAVKAPYLRYDYWGQGTQVTVSS | high polyreactivity
QVQLVESGGGLVQAGGSLRLSCAASGSTFDWYAMGWYRQAPGKERELVARIRWSGGSTYYADSVKGRFTISRDNAKNTVYLQMNSLKPEDTAVYYCAARTQTWPQYGYWGQGTQVTVSS | high polyreactivity
QVQLVESGGGLVQAGGSLRLSCAASGSNFYPYTMGWYRQAPGKERELVAAISGGGRTYYADSVKGRFTISRDNAKNTVFLQMNSLNPEDTAVYYCAARYVYRWLVGKYEYWGQGTQVTLSS | high polyreactivity
QFQLVESGGGLVQAGGSLRLSCADSGSIFSGYAMGRYRQEPGKDSELVASITRGGSTYYADSVKGRFTISLDNAKNNVYLQINSLKQEDTAVYYCARYGYKNRPLGMDYWGQGTQVTVSS | low polyreactivity
QVQLVESGGGLVQAGGSLRLSCAASGSTSKVYAMGWSRQAPGKERELVAAITFSGGSTYADSVKGRFTISRDNAKNTVYLQMNSLKPEDTAVYYCAVEVPYSWWWLVDYWGQGTLVTVSS | high polyreactivity
QDQLVESGGGLVQAGGSLRLSCAASGFIFKWNAMGWYRQAPGKERELVAGITRGGSTYADSVKGRFTISRDNAKNTVYLQMNSLKPEDTAVDYCAAGDYDEYDYWGQGTQVTVSS | high polyreactivity
QVQLVESGGGLVQAGGSLRLSCAASGSTLVTNAMGWYRQAPGKERELVAAITFSGGTTYYADSVKGLFTISRDNAKNTVYLQMNSLKPEDTAVYYCAAEIWLEYVGYDYWGQGTQVTLSS | high polyreactivity
QVQLVESGRGLVQAGGSLRLSCASSGFTLSPNAMRWYRPAPGKEREFVAAISQRGGSTYYADSVKGRFTISRDNAKNTVYLQMNSLKPEDTAVYYCARDTKYKYDFWGQGTQVTVSS | low polyreactivity
QVQLVESGGGLVQAGGSLRLSCAASGRTFSKYAMGWYRQAPGKERELVAAISKRGGSTSYADSVKGRFTISRDNAKNTVYLQMNSLKPEDTAVYYCAADGNRNYLYWPYGYWGQGTQVTVSS | high polyreactivity
QVQLVESGGVLVQAAGSLRLSCAASGRIFGYNAMGWYRQAPGSERDFVAAISPSGGSTYYADSLKGLFTISRDNAKITVYLQMNSLKPEDTGVYYCAARIGYRSWAWDAYEYWGQGTQVTVSS | low polyreactivity
QVQLVESGGGLVQAGGSLRISCAASGSIFVHYAMGWYIPAPGKERELVAAITTSGGSTYYADSVKGRFTISRDNAKNTVYLQMNSLKPEDTAVYYCTARAVRYPFTGNYWGQGTQVTVSS | high polyreactivity
QVQLVESGGGLVQAGGSLRLTCAASGFTFWWYTMGWYRQATGKERELVATITSGGRTNYADSVKGRFTISRDNAKNTVYLQMNSLKPEDTAVYYCNRVAYYSRYDTDDYWGQGTQVTVSS | high polyreactivity
QVQLVESGGGLVQAGGSLRLSCAASGSTSDSYAMGWYRQAPGKERELVAAISRGTNTYYADSVKGRFTISRDNAKNTVYLQLNRLKPEDTAVYYCNKVQYLRKYWVTPTGQRFGYWGQGTQVTVSS | high polyreactivity
QGQLGESGGGLVQAGGSLRLTCAASGNIFFVYAMGWYRQAPGNEWELVAAITWGGGSTNYADSVKGRFTISRDNAKKTVYLQMNSLKPEDTAVYYCATDNRYVVDSYYWGQGTQVTVSS | high polyreactivity
QVQLVESGGGLVQAGGSLRLSCAASGLTFGRYAMGWYRQAPGKERELVAAISSGGSTYYADSVKGRFTISRDNAKNTVYLQMNSLKPEDTAVYYCAADYVGWYFVSGRDYWGQGTQVTVSS | low polyreactivity
QVQLVESAGGLVQAGGSLRLSCAASGSTFYTYTMGWYRQAPGKERELVAAISSSGGDTYYADSVKGRFTISRDNAKNTVYLQMNSLKPEDTAVYYCAAAGPYGAVWRNDYWGQGTQVTVSS | low polyreactivity
QVQHVESGGGLVQAGGSLRLSCAASGITFSSYAMGWYRQAPGKERELVAAISSGGSTYYADSVKGRFTISRDNAKNTVYFQMNSLKPEDTAVYYCAAELATYVPNKWYYRYTGYYYWGQGTQVTVSS | low polyreactivity
QVQLVESGGGLVQAGGSLRLSCAASGFIFSRYAMGWYRQAPGKERELVAAISWSGASTYYADSVKGRFTISRDNAKNTVYLQMNSLKPEYTAVYYCNAVVTYHYSVSSVGSRYDYWGQGTQVTVSS | high polyreactivity
QVQLVESGGGLVQAGGSLRLSFAASGLTLYKNGMGWYRQAPGKETELVAVISRSGGRTYYADSVQGRFTISRDNAKNTVYLQMNSLKPEDTAVYYCAARQYGPRYTYYYWGQGTQVTVSS | high polyreactivity
